Where a chain is given by its changes, count along the chain named.
B1: ADI-14503 (antibody, V domains shown)
VH: QVQLVQSGGGLVKPGGSLRLSCAASGFSLTNYRMNWVRQAPGKGLEWVSSLKDSSSYIYYADSVKGRFTVSRDDAKNSFFLQMTNVRAEDTAVYYCAREGSDTEYWRLTPPMDVWGNGTTVTVSS
VL: QSVLTQPPSVSVAPRQTARITCGEHNIGTKSVHWYQQKPGQAPVLVIYDDSDRPSGIPARFSGSNSGNTATLTISWVEAGDEAVYYCQVWDSGDHPWLFGGGTQLTVL
notes: full-length IgG (yeast-expressed); also called Antibody Number 64; Ab# 64
B2: ADI-14522 (antibody, V domains shown)
VH: EVQLVESGAEVKKPGDSVKVSCRASGYSFTGPFLHWVRQAPGQRLEHMGWINPRSGETKYAQSFLGRVTMTRDTSIRSATLELSSLRSDDTAVYYCARDLYSSGWLDNWGQGTLVTVSS
VL: ETTLTQSPATLSVSPGERATLSCRASQGLSSNLAWYQHKPGQAPRLLVYGVATRATGVPARFSGSGSGTEFTLTISSLQSDDFALYYCHQYNDWPYTFGQGTKLEIK
notes: full-length IgG (yeast-expressed); also called Antibody Number 82; Ab# 82
B3: ADI-14464 (antibody, V domains shown)
VH: QVQLVQSGAEVKKPGASVKVSCEASAYSFSGDYVHWVRQAPGQGLEWMGWIKAVNGGANYAQRFHGRVTMTTDSSRSTVYLELTRLTPDDTAVYFCAKDRAASVHVPAGEFDLWGQGTLVTVSS
VL: DIQVTQSPSSLSASVGDRVSITCRASQSISNFLNWYRQRPGKAPELLIYAASTLQGGVPSRFSGSGSGTHFTLTISSLQPEDFATYYCQQSYTIPSITFGQGTRLEIK
B4: ADI-14462 (antibody, V domains shown)
VH: QVQLVQSGGGVVQPGGSLRLSCAAYGLTFRAYGMHWVRQAPGKGLEWVAVSWYDGTNEVYADSVKGRFRISRDDSRSTLYLQMNSLRGEDTAVYYCATERMWEENSSSFGWWGRGTLVTVSS
VL: QAVLTQPASVSGSPGQSITISCTGSSSDVGGSNFVSWYQQHPGKAPKLMVYDVNHRPSGISNRFSGSKSGNTASLTISGLQAEDEADYYCTSYTSRSSYVFGSGTKVTVL
B5: ADI-14463 (antibody, V domains shown)
VH: QVQLVQSGTEVKKPGASVKVSCKASGYIFDHFAITWVRQAPGQGPEWMGWISAYNGRTEDSGKFPGRLTLTTDPATRTAFLELRGLTPDDTAVYYCARDVPVMGAAFLDYWGQGTLVTVSS
VL: EIVLTQSPLSLPVTVGQPASISCRSGQSLEFSDGNTYLTWFHQRPGQSPRRLIYRGSYRDSGVPDRFRGSGSGTTFTLTISRVEAEDVGIYFCMQGTHWPPTFGQGTKVDIK
B6: ADI-14465 (antibody, V domains shown)
VH: QVQLLESGAGLLKPSETLSLTCSLSGGSFRDFYWAWIRQAPGRGLEWIGDINDGGNTNHSPSLKSRAILSIDASKRQFSLRLTSVTAADTAVYYCARQRLEHTASGYYMDVWGNGTTVTVSS
VL: QSVLTQPPSVSVDPGETATITCGGANIGSKNVYWYQQRPGQAPVLVVYDDIDRPAGIPDRFTDSSSGNTVTLTIYSVEAVDEADYFCQVWDNSSDQPVFGGGTKLTVL
B7: ADI-14467 (antibody, V domains shown)
VH: EVQLLESGSEVKKPGTSVKVSCETSGYIFTNYAISWVRQAPGQGLEWLGWISGYNGQTYYAQKVQGRLTLTTDTSTMTAYMDLTSLRSDDTAIYYCVRDVPVISGASTMDYWGQGTLVTVSS
VL: DIVMTQSPLSLPVTHGQPASISCRSSQSLVYSDGNTYLSWFQLRPGQSPRRLIYKVSNRDSGVPDRFSGSGSGTDFTLKISRVEAEDVGVYYCMQATQWPRTFGQGTKVEIK
B8: ADI-14474 (antibody, V domains shown)
VH: QVQLVQSGPEVKKPGASVTISCQASGYIFNHYSITWVRQAPGQGTEWMGWISAYHGKTEYSGKFHGRVTLTTDTGTRTAFLELRDLTSDDTAIYYCARDVPVMGAAFLDYWGQGTLVTVSS
VL: B5 VL with V15L, H42Q, Y54F, D65E, R68S, T75S, V109L, D110E
B9: ADI-14441 (antibody, V domains shown)
VH: QVQLVQSGAEVKKPGSSVKISCKASGGTFNSQAIHWVRQAPGQDLEWMGNIIPGFGSPNSAQNFQGRVTFIADDSTGAAYMDLSSLKSEDTAVYYCATAGWFGESVHLDSWGQGTLVTVSS
VL: not shown
B10: ADI-14478 (antibody, V domains shown)
VH: EVQLVESGGGLVKPGGSLRLSCAASGFTFSDYYMSWIRQAPGKGLEWVSYISISSSYTDYADSVKGRFTISRDNAKNSLYLQMNSLRAEDTAVYYCARDQRDQAVAGRWFDPWGQGTLVTVSS
VL: QSVVTQPPSVSGAPGQRVTISCTGSSSNIGAGFDVHWYQQVPGTAPKLLIYANTNRPSGVPDRFSGSKSGTSASLAITGLKAEDEADYYCQSYDNSLSGSAVFGGGTKVTVL
B11: ADI-14479 (antibody, V domains shown)
VH: QVQLVQSGSEVKQPGASVKVSCKASGYTFSAYHLHWVRQAPGQGLQWLGRINPNSGATSVAHNFQGRVTLTTDTSISTAYMELSSLTSDDSAVYYCARTMWRWLVEGGFENWGQGTLVTVSS
VL: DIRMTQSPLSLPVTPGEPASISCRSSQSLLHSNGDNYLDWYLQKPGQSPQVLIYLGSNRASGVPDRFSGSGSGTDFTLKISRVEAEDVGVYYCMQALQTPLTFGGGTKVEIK
B12: ADI-14480 (antibody, V domains shown)
VH: QVQLVQSGAEVKKPGSSMSISCRASGGSFNNQAIHWIRQAPGEGLEWMGNIIPNFGSQNYAPEFVGRVSFNADASAGTAYMDLSDLTSQDTAVYYCATAGWFGELVRFDSWGQGTLVTVSS
VL: DIVMTQSPATLSVSPGGRATLSCRASETITTNLAWYQQKPGQAPRLLIYGASTRATGIPARFSGSGSGTEFTLTINSLQSEDFAVYYCQQYNNWPPLTFGGGTKLEIK
B13: ADI-14482 (antibody, V domains shown)
VH: QVQLQQWGAGLVKPSETLSLTCAVSGGSFRGYQWNWFRQPPGKGLEWIGEINHGEYTHYNASLKSRVSLSIDTSKNQFSLNLTSVTAADTAMYFCARASSGTYNFEYWFDPWGQGTLVTVSS
VL: SYVLTQPPSVSVAPGKTAWLTCGGNNIGNKRVHWYQQKPGQAPVLVVYDDYGRPSGTSERVSGSNSGNTATLTISRVEAGDEAEYYCQVWDDPSDHAVFGGGTQLTVL
B14: ADI-14483 (antibody, V domains shown)
VH: QVQLVQSGGRLVKPGGSLRLSCGMSGFGFSSYRMNWVRQAPGKGLEWISSISASSSYTDYANSVKGRFTISRDGANLFLQMNSLRVEDTAVYYCARDWGGHSIFGAVQDLWGQGTLVTVSS
VL: QSVLTQPPSVSGAPGQRVTISCSGSSSNIGAGYDVHWYQQLPGTAPKLLIYGNTNRPSGVPDRFSGSKSGTSASLAITGLQAEDEADYYCQSYDRSLSQVFGAGTKVTVL
notes: full-length IgG (yeast-expressed); also called Antibody Number 44; Ab# 44
B15: ADI-14487 (antibody, V domains shown)
VH: QVQLVQSGAEVKKPGASVRVSCKASGYTFSSYYIHWVRQAPGQGPEWLGWINPKSGDTIYSYKFQGRVTLTRETSITTAYMELTSLRSDDTAVYYCARVTWQWLVLGGFDYWGQGTLVTVSS
VL: DIVLTQSPLSLPVTPGEPASISCRSSLSLLHSNGDNYLDWYLQKPGQSPQLLIYLGSNRASGVPDRFSGSGSGTDFTLKISRVEAEDVGVYYCMQALHTPLTFGGGTKLEIK
B16: ADI-14488 (antibody, V domains shown)
VH: EVQLVESGGGLVQPGGSLKLSCTSSGLAFSGSAIHWVRQASGKGLEWVGRIRSKPNSYATEYAASVKGRFTISRDDSQNTAYLQMNSLKAEDTALYYCTLGYCSGDSCSSLRDYWGQGTLVTVSS
VL: QSALIQPASVSGSPGQSITISCTGTSSDVGGYNYVSWYQQHPGKAPKLMIYDVSNRPSGVSNRFSGSKSGNTASLTISGLQAEDEADYYCSSYTSSSTLVFGGGTKVTVL
B17: ADI-14490 (antibody, V domains shown)
VH: QVQLVQSGGGVVQPGRSLRLSCAASGFTFSNYGMHWVRQAPGKGLEWVAVIWYDGSNKYYADSVKGRFTISRDNSKNTVYLQMNSLRADDTAVYYCARDAIFGSGPNWFDPWGQGTLVTVSS
VL: QSVLTQPPSVSGAPGQRVTISCTGSSSNIGAGYDVHWYQQLPGTAPKLLIYGSSNRPSGVPDRFSGSKSGTSASLAITGLQAEDEADYYCQSYESSLRGWVFGGGTKVTVL
B18: ADI-14473 (antibody, V domains shown)
VH: QVQLVQSGAEVKKPGEPLRISCKGSGYTFTSYWISWVRQMPGTGLEWMGRIDPSDSYTYSSPSFQGHVTISVDKSISTAYLQWSSLKASDTAIYYCARHKENYDFWDFWGQGTLVTVSS
VL: ETTLTQSPDSLAVSLGERATINCKSSQTIFFNSNNKISLAWYQQKPGQPPKLLISWASTRESGVPDRFSGSGSGTDFTLTISSLQPEDVAVYFCQQYYSSAFFGPGTRLEIK
notes: full-length IgG (yeast-expressed); also called Antibody Number 35; Ab# 35
B19: ADI-14486 (antibody, V domains shown)
VH: QVQLQESGPGLVKPSETLSLTCTVSGGSINNYFWSWIRQPPGKGLEWLGYIYNSGSTYYNPSLNSRVTISLQKSKNQFSLHLTSMTAADTAVYFCARHPSVIYGTFGANGGPNWFDPWGQGTLVTVSS
VL: QSVLTQPASVSGSPGQSITISCTGTSSDVGGYNYVSWYQQHPGKAPKLMIFDVTYRPSGISNRFSGSKSGNTASLTISGLHSEDEADYYCSSYTGSNTVIFGGGTKLTVL
notes: full-length IgG (yeast-expressed); also called Antibody Number 47; Ab# 47

Key:
[1] = target: T1, RSV F ectodomain stabilized in the postfusion conformation (F ΔFP), subtype A (Respiratory syncytial virus subtype A, UniProt P03420 26-109; P03420 147-524); assay: BLI, IgG on AHQ sensor, 100 nM antigen
T1 construct: extracellular domain; trimer; furin-cleaved; also called Postfusion subtype A

[2] = target: RSV F protein of recombinant mKate-RSV, subtype A (strain A2) (Respiratory syncytial virus subtype A …, UniProt P03420 26-574); assay: cell-based or functional assay
[3] = target: RSV F protein of recombinant mKate-RSV, subtype B (18537) (Respiratory syncytial virus subtype B …, UniProt P13843 26-574); assay: cell-based or functional assay
[4] = target: T2, RSV F ectodomain stabilized in the postfusion conformation (F ΔFP), subtype B (Respiratory syncytial virus subtype B, UniProt P13843 26-109; P13843 147-524); assay: BLI, IgG on AHQ sensor, 100 nM antigen
T2 construct: extracellular domain; trimer; also called Postfusion subtype B; postF subtype B

| Binder | Kd [1] | Neut IC50 subtype A [2] | Neut IC50 subtype B [3] | Kd [4] |
| --- | --- | --- | --- | --- |
| B1 | 26.1 nM | 0.016 µg/mL | 0.026 µg/mL |  |
| B2 |  | 3.53 µg/mL | 7.29 µg/mL | 1.06 nM |
| B3 |  | > 10 µg/mL | 0.161 µg/mL |  |
| B4 |  | 2.71 µg/mL | 2.63 µg/mL |  |
| B5 |  | 0.009 µg/mL | 0.036 µg/mL |  |
| B6 |  | 0.431 µg/mL | 0.124 µg/mL |  |
| B7 |  | 0.06 µg/mL | 0.065 µg/mL |  |
| B8 |  | 0.019 µg/mL | 0.016 µg/mL |  |
| B9 |  | > 10 µg/mL | 3.92 µg/mL |  |
| B10 |  | 0.163 µg/mL | 0.057 µg/mL |  |
| B11 |  | 4.09 µg/mL | 22.7 µg/mL |  |
| B12 |  | > 10 µg/mL | 2.76 µg/mL |  |
| B13 |  | 0.024 µg/mL | 0.031 µg/mL |  |
| B14 |  | 0.031 µg/mL | 0.03 µg/mL | 20 nM |
| B15 |  | > 10 µg/mL | > 10 µg/mL |  |
| B16 |  | > 10 µg/mL | > 10 µg/mL |  |
| B17 |  | 1.02 µg/mL | 0.113 µg/mL |  |
| B18 | 0.224 nM |  |  | 0.151 nM |
| B19 | 0.529 nM |  |  | 0.636 nM |

Reference: US20250313612A1 (Adimab, published 2025)
